{"source": "patent US20220195043A1", "key": {"[1]": {"biological_target": "human CD3ε-his (Cat #:10977-H08s, SinoBiological, China) (human) (UniProt P07766)", "sequence (P07766 23-126 limits assumed)": "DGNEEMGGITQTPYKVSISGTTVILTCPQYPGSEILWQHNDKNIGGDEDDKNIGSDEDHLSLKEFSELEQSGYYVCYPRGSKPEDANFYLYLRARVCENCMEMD", "assay": "SPR (BIAcore 8K); human CD3ε-his coupled to CM5 chip, antibody injected"}, "[2]": {"biological_target": "monkey CD3 complex on cell surfaces (monkey PBMCs) (monkey)", "assay": "FACS on monkey PBMCs (Cyno-PBMC), given by the filing as binding to monkey CD3; PE goat anti-human IgG, MFI"}, "[3]": {"biological_target": "monkey CD20 (HEK293A/monkey CD20 cells) (monkey)", "sequence (P11836 other isoform, or with tags, fused parts or gaps)": "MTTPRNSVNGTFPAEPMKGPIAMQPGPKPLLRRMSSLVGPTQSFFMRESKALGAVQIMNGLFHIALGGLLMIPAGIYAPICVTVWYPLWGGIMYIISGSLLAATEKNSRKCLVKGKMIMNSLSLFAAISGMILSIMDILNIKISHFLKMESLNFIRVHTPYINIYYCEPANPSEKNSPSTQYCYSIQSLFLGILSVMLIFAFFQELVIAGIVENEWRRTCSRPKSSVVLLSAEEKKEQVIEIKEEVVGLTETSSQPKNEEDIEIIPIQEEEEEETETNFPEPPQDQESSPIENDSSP", "assay": "FACS on HEK293A/monkey CD20 (CynoCD20) cells, PE anti-human IgG secondary antibody, MFI"}, "[4]": {"biological_target": "human CD3ε-his (Cat #:10977-H08s, SinoBiological, China) (human) (UniProt P07766)", "assay": "ELISA: plate coated with human CD3ε-his (hCD3ε-his), antibody titrated, HRP goat anti-human IgG, OD450"}}}
{"substance": "CD20-TCB (reference bispecific antibody against CD3 and CD20)", "values": [{"measurement": "Kd", "setting": "[1]", "value": 5.6, "unit": "nM"}, {"measurement": "EC50 (read off the curve)", "setting": "[2]", "value": 0.6, "unit": "µg/mL"}, {"measurement": "EC50 (read off the curve)", "setting": "[3]", "value": 0.06, "unit": "µg/mL"}, {"measurement": "EC50 (read off the curve)", "setting": "[4]", "value": 0.1, "unit": "µg/mL"}]}
